Tests used:
[1] = target: T1, Flag-WT-MRE11 (complexed with RAD50) (UniProt P49959 1-708; Q92878 1-1312); experiment: pull-down; purified proteins incubated in T50 buffer (25 mM Tris-HCl pH 7.5, 10% glycerol, 0.5 mM EDTA, 50 mM KCl, 1 mM DTT, 0.01% Igepal) on ice for 2 h, pulled down by anti-Flag M2 beads; supernatant and eluate immunoblotted; conditions: both partners purified
T1 construct: MRE11, Flag-tagged, in the pESC-URA vector; RAD50, His-tagged, in the pESC-URA vector; The results call it Flag-MRE11; also called MRE11/RAD50 complex; Flag-MRE11; source: protease-deficient yeast strain, co-expressed, purified (Ni-NTA, anti-Flag M2 beads)
T1 sequence (P49959 whole entry, chain 1 of 2): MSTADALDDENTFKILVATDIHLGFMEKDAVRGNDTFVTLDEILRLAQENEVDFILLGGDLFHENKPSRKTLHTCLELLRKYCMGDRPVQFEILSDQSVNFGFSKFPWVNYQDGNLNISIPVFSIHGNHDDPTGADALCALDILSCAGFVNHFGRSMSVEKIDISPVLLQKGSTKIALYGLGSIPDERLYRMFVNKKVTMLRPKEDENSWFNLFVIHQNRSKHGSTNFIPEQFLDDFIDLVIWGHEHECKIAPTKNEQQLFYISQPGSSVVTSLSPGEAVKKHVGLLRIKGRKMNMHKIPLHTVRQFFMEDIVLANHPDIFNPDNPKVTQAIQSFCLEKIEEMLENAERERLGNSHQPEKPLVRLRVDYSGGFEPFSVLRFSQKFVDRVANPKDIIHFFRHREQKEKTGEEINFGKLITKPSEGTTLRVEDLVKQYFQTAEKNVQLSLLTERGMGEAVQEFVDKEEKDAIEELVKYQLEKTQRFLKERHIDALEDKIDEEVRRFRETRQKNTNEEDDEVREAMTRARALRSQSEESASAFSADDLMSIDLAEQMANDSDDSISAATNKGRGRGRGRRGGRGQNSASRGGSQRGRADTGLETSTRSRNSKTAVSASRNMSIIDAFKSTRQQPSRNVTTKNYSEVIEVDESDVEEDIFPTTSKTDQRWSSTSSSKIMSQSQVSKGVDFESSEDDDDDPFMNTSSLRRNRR
T1 sequence (Q92878 whole entry, chain 2 of 2): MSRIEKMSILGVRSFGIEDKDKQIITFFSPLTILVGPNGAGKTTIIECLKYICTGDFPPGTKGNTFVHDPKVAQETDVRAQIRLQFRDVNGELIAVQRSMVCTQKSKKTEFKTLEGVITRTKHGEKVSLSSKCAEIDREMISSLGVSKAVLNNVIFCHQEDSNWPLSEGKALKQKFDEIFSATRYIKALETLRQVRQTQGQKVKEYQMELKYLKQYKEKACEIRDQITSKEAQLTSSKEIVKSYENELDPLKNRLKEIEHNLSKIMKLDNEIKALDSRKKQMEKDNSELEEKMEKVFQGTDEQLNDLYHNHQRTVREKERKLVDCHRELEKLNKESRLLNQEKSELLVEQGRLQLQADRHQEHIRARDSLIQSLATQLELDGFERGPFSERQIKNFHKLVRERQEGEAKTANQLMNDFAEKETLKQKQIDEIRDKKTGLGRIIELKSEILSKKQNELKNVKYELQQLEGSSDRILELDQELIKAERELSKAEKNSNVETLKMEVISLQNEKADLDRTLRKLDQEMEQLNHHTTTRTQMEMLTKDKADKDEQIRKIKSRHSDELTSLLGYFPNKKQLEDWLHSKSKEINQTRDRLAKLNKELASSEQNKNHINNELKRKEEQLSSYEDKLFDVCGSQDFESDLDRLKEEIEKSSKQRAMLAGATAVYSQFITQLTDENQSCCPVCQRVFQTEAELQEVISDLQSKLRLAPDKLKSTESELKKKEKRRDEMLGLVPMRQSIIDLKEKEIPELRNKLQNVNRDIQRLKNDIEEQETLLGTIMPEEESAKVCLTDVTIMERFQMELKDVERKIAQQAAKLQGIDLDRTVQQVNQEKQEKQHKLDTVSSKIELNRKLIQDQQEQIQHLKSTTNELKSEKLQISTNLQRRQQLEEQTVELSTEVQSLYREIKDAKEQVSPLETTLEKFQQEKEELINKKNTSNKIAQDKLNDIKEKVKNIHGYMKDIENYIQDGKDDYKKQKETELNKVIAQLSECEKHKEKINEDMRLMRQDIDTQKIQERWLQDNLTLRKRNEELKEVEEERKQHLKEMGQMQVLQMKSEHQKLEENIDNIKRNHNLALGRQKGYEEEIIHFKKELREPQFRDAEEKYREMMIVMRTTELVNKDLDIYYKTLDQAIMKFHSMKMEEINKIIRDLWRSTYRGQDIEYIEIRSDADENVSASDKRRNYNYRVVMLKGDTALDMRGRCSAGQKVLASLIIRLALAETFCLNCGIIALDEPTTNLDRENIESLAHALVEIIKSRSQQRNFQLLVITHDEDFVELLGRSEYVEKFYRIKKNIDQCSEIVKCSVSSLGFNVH

[2] = target: T2, Flag-4KR (complexed with RAD50) (UniProt P49959 1-708; Q92878 1-1312, K255R | K384R | K416R | K467R); experiment: as above; conditions: both partners purified
T2 construct: MRE11 with the four lysine-to-arginine mutations (4KR); RAD50, His-tagged, as in the MRE11/RAD50 complex; also called MRE11 4KR mutant; SUMOylation-deficient MRE11; source: purified, complexed with RAD50; the host is told for the MRE11/RAD50 complex: yeast
T2 sequence (P49959 whole entry K255R/K384R/K416R/K467R, chain 1 of 2): as the sequence (P49959 whole entry, chain 1 of 2) above, with K255R, K384R, K416R, K467R counted along it
T2 sequence (Q92878 whole entry, chain 2 of 2): as the sequence (Q92878 whole entry, chain 2 of 2) above

B1: MBP-NBS1 (natural protein, UniProt O60934 1-754, looked up)
chain: MWKLLPAAGPAGGEPYRLLTGVEYVVGRKNCAILIENDQSISRNHAVLTANFSVTNLSQTDEIPVLTLKDNSKYGTFVNEEKMQNGFSRTLKSGDGITFGVFGSKFRIEYEPLVACSSCLDVSGKTALNQAILQLGGFTVNNWTEECTHLVMVSVKVTIKTICALICGRPIVKPEYFTEFLKAVESKKQPPQIESFYPPLDEPSIGSKNVDLSGRQERKQIFKGKTFIFLNAKQHKKLSSAVVFGGGEARLITEENEEEHNFFLAPGTCVVDTGITNSQTLIPDCQKKWIQSIMDMLQRQGLRPIPEAEIGLAVIFMTTKNYCDPQGHPSTGLKTTTPGPSLSQGVSVDEKLMPSAPVNTTTYVADTESEQADTWDLSERPKEIKVSKMEQKFRMLSQDAPTVKESCKTSSNNNSMVSNTLAKMRIPNYQLSPTKLPSINKSKDRASQQQQTNSIRNYFQPSTKKRERDEENQEMSSCKSARIETSCSLLEQTQPATPSLWKNKEQHLSENEPVDTNSDNNLFTDTDLKSIVKNSASKSHAAEKLRSNKKREMDDVAIEDEVLEQLFKDTKPELEIDVKVQKQEEDVNVRKRPRMDIETNDTFSDEAVPESSKISQENEIGKKRELKEDSLWSAKEISNNDKLQDDSEMLPKKLLLTEFRSLVIKNSTSRNPSGINDDYGQLKNFKKFKKVTYPGAGKLPHIIGGSDLIAHHARKNTELEEWLRQEMEVQNQHAKEESLADDLFRYNPYLKRRR
notes: NBS1, MBP- and His-tagged, in the pFastBac vector; also called MBP- and His-tagged NBS1; source: High Five cells (baculovirus), purified (amylose beads, Ni-NTA)
[1]
  binding result: binds
[2]
  binding result: binds

From article PMC9436968, “Crosstalk between SUMOylation and ubiquitylation controls DNA end resection by maintaining MRE11 homeostasis on chromatin” (Nature Communications, 2022)
